Assays:
[1] = biological target: HIV-1 Gag polyprotein, uncleaved, in immature virus particles (MA domain of Gag) (HIV-1); assay: cryo-EM structure
[2] = biological target: HIV-1 matrix protein (MA), cleaved, in mature cHIV particles (HIV-1); assay: cryo-EM structure

Row | Substance | stoichiometry N [1] | stoichiometry N [2]
1 | HIV-1 Gag polyprotein, uncleaved, in immature virus particles (MA domain of Gag) (natural protein) | 3 | 
2 | HIV-1 matrix protein (MA), cleaved, in mature cHIV particles (natural protein) |  | 3

From PMC7611776
